From publication PMC7641331, “Ctf18-RFC and DNA Pol ϵ form a stable leading strand polymerase/clamp loader complex required for normal and perturbed DNA replication” (Nucleic Acids Research, 2019)
One block for each molecule: values may come before it.

Assays:
[1] = biological target: Pol2CAT, the complete catalytic domain of Pol2 (residues 1–1192), exonuclease-deficient (D290A/E292A) (S. cerevisiae) (UniProt P21951); assay: ITC; 170 μM Ctf18-1-8 titrated into 25 μM Pol2CAT in the presence of 50 μM P1P2 DNA; 25°C; 20 mM HEPES pH 7.5, 160 mM NaCl, 1 mM TCEP; 1:1 hetero-association model
[2] = biological target: Pol2 1-528 (Saccharomyces cerevisiae) (UniProt P21951); details: cited from earlier work
[3] = biological target: Pol2CAT (exonuclease-deficient DNA Pol epsilon catalytic domain);Ctf18-1-8 wild type (Ctf18 C-terminal … (Saccharomyces cerevisiae?;Saccharomyces …, UniProt P21951;P49956;P25559;P38877 1-1192;666-741;1-380;1-133, D290A;E292A|)); assay: EMSA supershift; 50 nM DNA; supershift saturated at 125 nM Ctf18-1-8 (lowest tested); DNA binding identical to Pol2CAT alone; EMSA: 25 mM HEPES pH 7.5, 60 mM KCl, 10% glycerol, 1 mM TCEP, 50 nM P1P2*, 20 min on ice, 6% Tris-glycine gel at 4 C; details: protein: recombinant;recombinant; tags: N-terminal His (pETM14); copies: 1;1;1;1; label: 5' Cy3 on P1; 5' overhang 5 nt on P2 (template); 11 bp duplex
Pol2CAT (exonuclease-deficient DNA Pol epsilon catalytic domain);Ctf18-1-8 wild type (Ctf18 C-terminal …, sequence (P49956 666-741, chain 2 of 2): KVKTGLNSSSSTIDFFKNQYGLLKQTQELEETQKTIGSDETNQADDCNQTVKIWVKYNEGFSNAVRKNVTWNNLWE
Pol2CAT (exonuclease-deficient DNA Pol epsilon catalytic domain);Ctf18-1-8 wild type (Ctf18 C-terminal …, sequence (P38877 whole entry, chain 4 of 2, the tested form may be a part): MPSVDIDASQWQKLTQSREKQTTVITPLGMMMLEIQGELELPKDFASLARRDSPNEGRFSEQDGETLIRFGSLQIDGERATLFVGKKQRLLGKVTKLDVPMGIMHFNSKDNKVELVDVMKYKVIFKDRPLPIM

[4] = biological target: T1, Pol2CAT (exonuclease-deficient DNA Pol epsilon catalytic domain) (UniProt P21951 1-1192, D290A;E292A); assay: EMSA; 50 nM DNA, no dNTP; EMSA: 25 mM HEPES pH 7.5, 60 mM KCl, 10% glycerol, 1 mM TCEP, 50 nM P1P2*, 20 min on ice, 6% Tris-glycine gel at 4 C; details: protein: recombinant; tags: N-terminal His (pETM14); label: 5' Cy3 on P1; 5' overhang 5 nt on P2 (template); 11 bp duplex
T1 sequence: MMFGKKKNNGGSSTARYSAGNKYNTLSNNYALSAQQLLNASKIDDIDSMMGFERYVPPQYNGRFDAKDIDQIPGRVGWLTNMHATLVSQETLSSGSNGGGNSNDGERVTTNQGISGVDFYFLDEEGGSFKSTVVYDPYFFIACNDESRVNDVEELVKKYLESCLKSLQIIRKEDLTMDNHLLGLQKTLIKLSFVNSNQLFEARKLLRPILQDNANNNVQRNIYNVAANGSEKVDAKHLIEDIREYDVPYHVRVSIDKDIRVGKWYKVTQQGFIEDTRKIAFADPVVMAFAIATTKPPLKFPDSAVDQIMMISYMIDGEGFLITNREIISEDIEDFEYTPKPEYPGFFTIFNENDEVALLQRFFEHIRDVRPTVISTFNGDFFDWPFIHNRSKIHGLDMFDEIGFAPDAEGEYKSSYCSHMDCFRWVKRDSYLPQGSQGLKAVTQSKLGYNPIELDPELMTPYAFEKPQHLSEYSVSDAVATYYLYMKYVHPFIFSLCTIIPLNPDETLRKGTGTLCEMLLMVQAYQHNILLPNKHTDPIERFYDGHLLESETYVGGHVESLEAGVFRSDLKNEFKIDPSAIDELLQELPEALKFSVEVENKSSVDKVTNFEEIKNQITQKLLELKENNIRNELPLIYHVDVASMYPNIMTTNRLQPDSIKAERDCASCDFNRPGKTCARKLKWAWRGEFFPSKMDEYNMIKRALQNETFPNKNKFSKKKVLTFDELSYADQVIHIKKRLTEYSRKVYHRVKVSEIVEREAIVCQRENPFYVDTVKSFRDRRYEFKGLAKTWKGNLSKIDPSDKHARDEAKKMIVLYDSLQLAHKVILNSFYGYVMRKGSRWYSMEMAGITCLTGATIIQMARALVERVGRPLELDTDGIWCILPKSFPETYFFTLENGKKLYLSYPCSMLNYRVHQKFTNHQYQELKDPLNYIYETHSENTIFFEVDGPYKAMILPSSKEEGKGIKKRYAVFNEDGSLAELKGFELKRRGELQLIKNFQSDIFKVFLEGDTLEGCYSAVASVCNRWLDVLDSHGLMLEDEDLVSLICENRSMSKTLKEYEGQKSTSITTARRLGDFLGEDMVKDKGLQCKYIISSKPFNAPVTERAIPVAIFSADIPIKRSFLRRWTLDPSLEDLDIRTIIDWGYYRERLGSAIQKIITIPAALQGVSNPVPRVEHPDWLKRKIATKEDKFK

[5] = biological target: T2, Pol2CAT, the complete catalytic domain of Pol2 (residues 1–1192), exonuclease-deficient (D290A/E292A) (S. cerevisiae, UniProt P21951 1-1192, D290A | E292A); assay: cryo-EM structure; 2 μM Ctf18-1-8, Pol2CAT and P1P2* DNA in 20 mM HEPES pH 7.5, 160 mM NaCl, 1 mM TCEP; GraFix sucrose gradient with 0.15% glutaraldehyde; only DNA-free classes refined (Class 1 4.2 Å, Class 2 5.8 Å); details: both partners purified
T2 construct: Pol2, largest (catalytic) subunit of DNA Pol ϵ, S. cerevisiae, residues 1-1192; An iron-sulfur (4Fe4S) cluster is modelled in the structure; No tag cleavage step is described; also called POL2(1–1192)exo; Pol2 catalytic domain; source: E. coli BL21(DE3)Star, purified (Histrap, Superdex 200, MonoQ); not shown: His tag (from the Histrap column)
T2 sequence (looked up): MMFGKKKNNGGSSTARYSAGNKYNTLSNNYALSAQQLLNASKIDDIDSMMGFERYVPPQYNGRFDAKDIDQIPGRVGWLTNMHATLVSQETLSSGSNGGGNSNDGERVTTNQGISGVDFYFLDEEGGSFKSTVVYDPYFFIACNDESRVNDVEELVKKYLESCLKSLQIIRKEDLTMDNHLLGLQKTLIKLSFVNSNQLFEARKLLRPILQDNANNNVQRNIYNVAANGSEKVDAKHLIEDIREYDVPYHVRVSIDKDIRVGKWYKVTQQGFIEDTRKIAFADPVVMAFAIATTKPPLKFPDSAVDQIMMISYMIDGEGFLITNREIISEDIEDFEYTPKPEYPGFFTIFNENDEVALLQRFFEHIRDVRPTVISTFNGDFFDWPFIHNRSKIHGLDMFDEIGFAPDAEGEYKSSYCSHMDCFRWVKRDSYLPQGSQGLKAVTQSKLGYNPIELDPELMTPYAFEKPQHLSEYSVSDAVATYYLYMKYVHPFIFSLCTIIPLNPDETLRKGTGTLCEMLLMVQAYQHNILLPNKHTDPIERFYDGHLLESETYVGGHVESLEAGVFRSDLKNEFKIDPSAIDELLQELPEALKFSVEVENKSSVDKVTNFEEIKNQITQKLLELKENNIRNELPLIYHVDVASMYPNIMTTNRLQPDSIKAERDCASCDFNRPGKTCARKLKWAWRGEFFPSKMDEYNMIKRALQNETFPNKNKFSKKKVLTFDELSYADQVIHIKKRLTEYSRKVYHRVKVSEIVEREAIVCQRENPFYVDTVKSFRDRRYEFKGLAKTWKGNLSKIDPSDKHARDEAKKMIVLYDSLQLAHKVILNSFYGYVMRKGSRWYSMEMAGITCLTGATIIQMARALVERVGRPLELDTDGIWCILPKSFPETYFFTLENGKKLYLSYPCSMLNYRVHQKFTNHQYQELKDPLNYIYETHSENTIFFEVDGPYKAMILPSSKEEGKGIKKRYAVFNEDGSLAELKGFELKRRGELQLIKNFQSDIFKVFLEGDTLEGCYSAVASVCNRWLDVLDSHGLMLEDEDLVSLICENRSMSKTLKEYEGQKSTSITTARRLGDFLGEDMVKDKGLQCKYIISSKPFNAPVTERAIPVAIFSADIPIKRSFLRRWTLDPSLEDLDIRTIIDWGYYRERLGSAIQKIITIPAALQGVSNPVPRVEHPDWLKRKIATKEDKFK

Kd [1]: 0.04 µM
Molecule: Ctf18-1-8 module (C-terminus of Ctf18 with Dcc1 and Ctf8), wild type (from UniProt P49956 1-741; P25559 1-380; P38877 1-133) (complex)

Molecule: Ctf18-1-8 (from UniProt P49956)
Kd [2]: 1.3 µM

B1: P1P2* primer-template (dsDNA)
DNA 1: TAACCGCGTTC
DNA 2: CTCTTGAACGCGGTTA
binding result [3]: binds
binding result [4]: binds

binding result [5]: binds
B2: Dcc1 (chain of the recombinant Ctf18-1-8 module) (natural protein, S. cerevisiae)
chain: MSINLHSAPEYDPSYKLIQLTPELLDIIQDPVQNHQLRFKSLDKDKSEVVLCSHDKTWVLKQRKHSNTVLLMREFVPEQPITFDETLLFGLSKPYMDVVGFAKTESEFETRETHGELNLNSVPIYNGELDFSDKIMKRSSTKVIGTLEELLENSPCSALEGISKWHKIGGSVKDGVLCILSQDFLFKALHVLLMSAMAESLDLQHLNVEDTHHAVGKDIEDEFNPYTREIIETVLNKFAVQEQEAENNTWRLRIPFIAQWYGIQALRKYVSGISMPIDEFLIKWKSLFPPFFPCDIDIDMLRGYHFKPTDKTVQYIAKSTLPMDPKERFKVLFRLQSQWDLEDIKPLIEELNSRGMKIDSFIMKYARRKRLGKKTVVTSR
notes: Dcc1, S. cerevisiae; The Dcc1 chain of m2, written alone for the pairs that touch in the structures; also called Dcc1WH3 (its last winged helix domain)
